{
  "source": "patent US20060036083",
  "proteins": {"B1": {"name": "recombinant ADP-ribosyltransferase (ART)-1 with a FLAG tag, cloned from a rabbit muscle cDNA library (protein)", "chain": "QSHLVTRRDLFSQETPLDMAPASFDDQYVGCAAAMTAALPHLNLTEFQVNKVYADGWALASSQWRERSAWGPEWGLSTTRLPPPPAGFRDEHGVALLAYTANSPLHKEFNAAVRQAGRSRAHYLQHFSFKTLHFLLTEALQLLGRDQRMPRCRQVFRGVHGLRFRPAGPGTTVRLGGFASASLKNVAAQQFGEDTFFGIWTCLGVPIQGYSFFPGEEEVLIPPFETFQVINASRPAQGPARIYLKALGKRSSYNCEYIKEMQCKSRPCHLDNS"}},
  "target": "human neutrophil peptide (HNP)-1",
  "sequence (chain, as listed by the source)": "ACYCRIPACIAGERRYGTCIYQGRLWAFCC",
  "data": [
    {"protein": "B1", "values": [
      {"measurement": "ADP-ribosylation of HNP-1 by ART-1 with NAD+ (RP-HPLC, MALDI mass spectrometry)", "result": "peptides with a mass of 3,983 daltons (retention time 46.5 minutes), consistent with mono-ADP-ribosyl-HNP (calculated mass equivalent to 3,983 daltons), were identified"}
    ]}
  ]
}
